Key:
[1] = target: AT5G11530.1 EMF1 (Arabidopsis thaliana) (UniProt Q9LYD9); assay: X-link IP-MS
[2] = target: AT1G22950.1 ICU11 (Arabidopsis thaliana) (UniProt Q3ED68); assay: X-link IP-MS
[3] = target: AT3G20740.1 FIE (Arabidopsis thaliana) (UniProt Q9LT47); assay: X-link IP-MS
[4] = target: T1, AT5G67580.1 TRB2 (Arabidopsis thaliana) (UniProt Q9FJW5); assay: X-link IP-MS
T1 sequence: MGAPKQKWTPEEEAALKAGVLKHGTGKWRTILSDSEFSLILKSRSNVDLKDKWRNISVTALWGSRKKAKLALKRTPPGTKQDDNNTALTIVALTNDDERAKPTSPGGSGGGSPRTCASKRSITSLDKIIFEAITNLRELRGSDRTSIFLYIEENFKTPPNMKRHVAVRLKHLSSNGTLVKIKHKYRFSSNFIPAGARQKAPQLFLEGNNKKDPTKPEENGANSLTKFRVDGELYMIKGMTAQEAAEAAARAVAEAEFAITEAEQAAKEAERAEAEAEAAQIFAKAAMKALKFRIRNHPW

[5] = target: AT5G58230.1 MSI1 (Arabidopsis thaliana) (UniProt O22467); assay: X-link IP-MS
[6] = target: AT3G10480.3 NAC050 (Arabidopsis thaliana) (UniProt Q9SQX9); assay: X-link IP-MS
[7] = target: AT3G18210.1 CP2 (Arabidopsis thaliana) (UniProt P0DO23); assay: X-link IP-MS
[8] = target: AT3G10490.2 NAC052 (Arabidopsis thaliana) (UniProt Q9SQY0); assay: X-link IP-MS
[9] = target: AT5G11530.1 EMF1 (Arabidopsis thaliana) (UniProt Q9LYD9); assay: IP-MS rep 2
[10] = target: AT1G22950.1 ICU11 (Arabidopsis thaliana) (UniProt Q3ED68); assay: IP-MS rep 2
[11] = target: AT3G20740.1 FIE (Arabidopsis thaliana) (UniProt Q9LT47); assay: IP-MS rep 2
[12] = target: T1, AT5G67580.1 TRB2 (Arabidopsis thaliana); assay: IP-MS rep 2
[13] = target: AT5G58230.1 MSI1 (Arabidopsis thaliana) (UniProt O22467); assay: IP-MS rep 2
[14] = target: AT3G10480.3 NAC050 (Arabidopsis thaliana) (UniProt Q9SQX9); assay: IP-MS rep 2
[15] = target: AT3G18210.1 CP2 (Arabidopsis thaliana) (UniProt P0DO23); assay: IP-MS rep 2
[16] = target: AT3G10490.2 NAC052 (Arabidopsis thaliana) (UniProt Q9SQY0); assay: IP-MS rep 2
[17] = target: AT5G11530.1 EMF1 (Arabidopsis thaliana) (UniProt Q9LYD9); assay: IP-MS rep 1
[18] = target: AT1G22950.1 ICU11 (Arabidopsis thaliana) (UniProt Q3ED68); assay: IP-MS rep 1
[19] = target: AT3G20740.1 FIE (Arabidopsis thaliana) (UniProt Q9LT47); assay: IP-MS rep 1
[20] = target: T1, AT5G67580.1 TRB2 (Arabidopsis thaliana); assay: IP-MS rep 1
[21] = target: AT5G58230.1 MSI1 (Arabidopsis thaliana) (UniProt O22467); assay: IP-MS rep 1
[22] = target: AT3G10480.3 NAC050 (Arabidopsis thaliana) (UniProt Q9SQX9); assay: IP-MS rep 1
[23] = target: AT3G18210.1 CP2 (Arabidopsis thaliana) (UniProt P0DO23); assay: IP-MS rep 1
[24] = target: AT3G10490.2 NAC052 (Arabidopsis thaliana) (UniProt Q9SQY0); assay: IP-MS rep 1
[25] = target: AT5G51230.1 EMF2 (Arabidopsis thaliana) (UniProt Q8L6Y4); assay: X-link IP-MS
[26] = target: T2, AT4G02020.1 SWN (Arabidopsis thaliana) (UniProt Q9ZSM8); assay: X-link IP-MS
T2 sequence (looked up): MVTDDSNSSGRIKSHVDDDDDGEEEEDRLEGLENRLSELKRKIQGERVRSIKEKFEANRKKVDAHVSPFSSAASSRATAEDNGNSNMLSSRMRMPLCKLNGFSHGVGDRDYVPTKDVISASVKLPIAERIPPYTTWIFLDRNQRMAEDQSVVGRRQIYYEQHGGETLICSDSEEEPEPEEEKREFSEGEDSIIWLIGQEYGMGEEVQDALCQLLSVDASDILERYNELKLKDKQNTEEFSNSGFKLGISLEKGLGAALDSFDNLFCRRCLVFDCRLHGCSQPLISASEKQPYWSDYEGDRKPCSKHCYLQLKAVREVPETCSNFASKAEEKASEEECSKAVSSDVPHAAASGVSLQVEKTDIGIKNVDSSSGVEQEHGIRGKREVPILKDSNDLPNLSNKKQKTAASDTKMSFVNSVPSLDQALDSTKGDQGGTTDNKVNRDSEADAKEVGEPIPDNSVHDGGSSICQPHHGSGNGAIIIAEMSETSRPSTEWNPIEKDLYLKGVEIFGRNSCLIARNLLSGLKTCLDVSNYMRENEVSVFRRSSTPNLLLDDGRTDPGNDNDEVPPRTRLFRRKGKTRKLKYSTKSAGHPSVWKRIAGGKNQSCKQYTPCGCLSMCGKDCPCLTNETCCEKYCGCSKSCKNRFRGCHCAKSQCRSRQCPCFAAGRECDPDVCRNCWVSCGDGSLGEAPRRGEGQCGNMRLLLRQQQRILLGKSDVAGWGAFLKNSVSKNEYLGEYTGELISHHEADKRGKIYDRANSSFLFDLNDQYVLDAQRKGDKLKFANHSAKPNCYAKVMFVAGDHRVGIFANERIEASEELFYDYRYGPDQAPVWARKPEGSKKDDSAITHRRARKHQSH

[27] = target: AT2G23380.1 CLF (Arabidopsis thaliana) (UniProt P93831); assay: X-link IP-MS
[28] = target: AT1G49950.3 TRB1 (Arabidopsis thaliana) (UniProt Q8VWK4); assay: X-link IP-MS
[29] = target: T3, AT5G17690.1 LHP1 (Arabidopsis thaliana) (UniProt Q946J8); assay: X-link IP-MS
T3 sequence: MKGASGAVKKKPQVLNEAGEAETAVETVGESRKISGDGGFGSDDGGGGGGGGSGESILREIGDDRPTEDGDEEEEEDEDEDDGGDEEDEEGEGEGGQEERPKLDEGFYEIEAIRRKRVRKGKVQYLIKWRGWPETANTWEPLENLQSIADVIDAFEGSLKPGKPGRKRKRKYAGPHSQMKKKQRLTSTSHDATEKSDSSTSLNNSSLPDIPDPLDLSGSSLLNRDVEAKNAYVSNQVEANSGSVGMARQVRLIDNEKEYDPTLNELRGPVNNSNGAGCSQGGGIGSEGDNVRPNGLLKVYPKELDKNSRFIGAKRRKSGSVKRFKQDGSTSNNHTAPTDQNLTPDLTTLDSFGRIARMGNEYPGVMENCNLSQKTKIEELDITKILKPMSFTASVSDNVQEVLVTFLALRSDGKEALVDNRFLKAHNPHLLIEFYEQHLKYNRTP

[30] = target: AT5G51230.1 EMF2 (Arabidopsis thaliana) (UniProt Q8L6Y4); assay: IP-MS rep 2
[31] = target: T2, AT4G02020.1 SWN (Arabidopsis thaliana); assay: IP-MS rep 2
[32] = target: AT2G23380.1 CLF (Arabidopsis thaliana) (UniProt P93831); assay: IP-MS rep 2
[33] = target: AT1G49950.3 TRB1 (Arabidopsis thaliana) (UniProt Q8VWK4); assay: IP-MS rep 2
[34] = target: T3, AT5G17690.1 LHP1 (Arabidopsis thaliana); assay: IP-MS rep 2
[35] = target: AT5G51230.1 EMF2 (Arabidopsis thaliana) (UniProt Q8L6Y4); assay: IP-MS rep 1
[36] = target: T2, AT4G02020.1 SWN (Arabidopsis thaliana); assay: IP-MS rep 1
[37] = target: AT2G23380.1 CLF (Arabidopsis thaliana) (UniProt P93831); assay: IP-MS rep 1
[38] = target: AT1G49950.3 TRB1 (Arabidopsis thaliana) (UniProt Q8VWK4); assay: IP-MS rep 1
[39] = target: T3, AT5G17690.1 LHP1 (Arabidopsis thaliana); assay: IP-MS rep 1
[40] = target: AT4G38130.1 HDA19 (Arabidopsis thaliana) (UniProt O22446); assay: IP-MS rep 2
[41] = target: AT5G63110.1 HDA6 (Arabidopsis thaliana) (UniProt Q9FML2); assay: IP-MS rep 2
[42] = target: AT4G20400.1 JMJ14 (Arabidopsis thaliana) (UniProt Q8GUI6); assay: IP-MS rep 2
[43] = target: AT4G38130.1 HDA19 (Arabidopsis thaliana) (UniProt O22446); assay: IP-MS rep 1
[44] = target: AT5G63110.1 HDA6 (Arabidopsis thaliana) (UniProt Q9FML2); assay: IP-MS rep 1
[45] = target: AT4G20400.1 JMJ14 (Arabidopsis thaliana) (UniProt Q8GUI6); assay: IP-MS rep 1

Chain of AT4G20400.1 JMJ14 (Arabidopsis thaliana) (Q8GUI6 whole entry): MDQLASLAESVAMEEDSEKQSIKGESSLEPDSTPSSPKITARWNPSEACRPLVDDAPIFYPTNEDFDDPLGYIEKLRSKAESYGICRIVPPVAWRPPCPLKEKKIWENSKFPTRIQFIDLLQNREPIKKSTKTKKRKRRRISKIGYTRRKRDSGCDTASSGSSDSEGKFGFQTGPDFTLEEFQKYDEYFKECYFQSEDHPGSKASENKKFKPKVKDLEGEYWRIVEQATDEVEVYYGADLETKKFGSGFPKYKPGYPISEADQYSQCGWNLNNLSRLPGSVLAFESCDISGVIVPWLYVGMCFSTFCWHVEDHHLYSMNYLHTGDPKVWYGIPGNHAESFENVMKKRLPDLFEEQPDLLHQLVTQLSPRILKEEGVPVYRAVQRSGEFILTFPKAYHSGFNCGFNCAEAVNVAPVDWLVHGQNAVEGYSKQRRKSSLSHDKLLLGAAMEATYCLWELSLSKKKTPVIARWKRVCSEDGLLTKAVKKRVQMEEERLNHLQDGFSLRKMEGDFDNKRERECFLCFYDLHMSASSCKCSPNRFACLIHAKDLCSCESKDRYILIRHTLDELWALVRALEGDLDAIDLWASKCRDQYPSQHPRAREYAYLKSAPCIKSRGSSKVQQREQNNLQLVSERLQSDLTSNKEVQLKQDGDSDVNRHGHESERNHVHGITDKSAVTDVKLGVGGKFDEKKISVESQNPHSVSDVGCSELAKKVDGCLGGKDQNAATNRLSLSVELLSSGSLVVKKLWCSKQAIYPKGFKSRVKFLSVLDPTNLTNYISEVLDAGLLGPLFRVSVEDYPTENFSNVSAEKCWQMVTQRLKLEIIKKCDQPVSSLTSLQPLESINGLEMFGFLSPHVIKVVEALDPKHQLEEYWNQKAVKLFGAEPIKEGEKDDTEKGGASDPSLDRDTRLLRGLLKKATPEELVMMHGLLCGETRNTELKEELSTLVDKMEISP
Chain of AT5G63110.1 HDA6 (Arabidopsis thaliana) (Q9FML2 whole entry): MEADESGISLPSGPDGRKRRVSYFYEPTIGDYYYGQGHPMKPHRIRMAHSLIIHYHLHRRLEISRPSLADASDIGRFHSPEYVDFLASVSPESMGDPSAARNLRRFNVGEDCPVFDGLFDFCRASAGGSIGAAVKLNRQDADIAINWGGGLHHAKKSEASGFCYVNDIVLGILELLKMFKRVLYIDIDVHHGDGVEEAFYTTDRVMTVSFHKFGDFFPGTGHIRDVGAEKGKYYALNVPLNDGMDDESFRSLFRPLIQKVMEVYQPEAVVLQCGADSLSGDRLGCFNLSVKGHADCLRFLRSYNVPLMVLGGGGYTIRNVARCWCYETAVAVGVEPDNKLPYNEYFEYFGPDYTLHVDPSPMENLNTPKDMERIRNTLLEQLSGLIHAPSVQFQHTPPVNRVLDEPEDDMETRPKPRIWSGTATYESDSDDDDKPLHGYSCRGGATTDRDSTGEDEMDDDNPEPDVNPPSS
Chain of AT5G11530.1 EMF1 (Arabidopsis thaliana) (Q9LYD9 whole entry): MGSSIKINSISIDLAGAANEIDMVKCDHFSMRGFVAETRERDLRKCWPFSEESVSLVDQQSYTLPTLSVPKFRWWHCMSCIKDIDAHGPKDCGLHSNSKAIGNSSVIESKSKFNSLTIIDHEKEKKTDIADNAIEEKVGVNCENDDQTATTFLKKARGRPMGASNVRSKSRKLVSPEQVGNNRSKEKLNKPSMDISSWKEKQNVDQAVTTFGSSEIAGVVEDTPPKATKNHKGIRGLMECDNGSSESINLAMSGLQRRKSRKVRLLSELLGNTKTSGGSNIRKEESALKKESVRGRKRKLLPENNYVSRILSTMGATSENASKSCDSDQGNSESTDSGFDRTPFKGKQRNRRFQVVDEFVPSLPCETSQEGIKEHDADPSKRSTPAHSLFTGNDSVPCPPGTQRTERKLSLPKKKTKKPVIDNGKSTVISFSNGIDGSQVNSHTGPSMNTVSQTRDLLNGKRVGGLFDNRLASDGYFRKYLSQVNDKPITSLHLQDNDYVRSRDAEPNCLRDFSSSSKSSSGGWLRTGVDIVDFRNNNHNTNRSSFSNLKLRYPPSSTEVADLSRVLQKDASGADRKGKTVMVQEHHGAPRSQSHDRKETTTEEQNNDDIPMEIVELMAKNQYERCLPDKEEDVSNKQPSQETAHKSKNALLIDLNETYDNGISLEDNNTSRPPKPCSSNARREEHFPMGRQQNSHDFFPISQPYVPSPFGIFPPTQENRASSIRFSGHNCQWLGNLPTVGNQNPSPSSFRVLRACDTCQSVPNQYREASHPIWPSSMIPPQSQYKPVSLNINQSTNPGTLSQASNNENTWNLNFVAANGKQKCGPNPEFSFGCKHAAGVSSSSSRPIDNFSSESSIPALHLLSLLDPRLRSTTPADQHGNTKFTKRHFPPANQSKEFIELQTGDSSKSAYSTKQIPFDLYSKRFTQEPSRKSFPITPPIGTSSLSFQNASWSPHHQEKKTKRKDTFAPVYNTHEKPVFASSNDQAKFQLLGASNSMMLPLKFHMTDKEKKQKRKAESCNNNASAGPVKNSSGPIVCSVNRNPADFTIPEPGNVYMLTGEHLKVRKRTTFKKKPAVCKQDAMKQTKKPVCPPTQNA
Chain of AT3G18210.1 CP2 (Arabidopsis thaliana) (P0DO23 whole entry): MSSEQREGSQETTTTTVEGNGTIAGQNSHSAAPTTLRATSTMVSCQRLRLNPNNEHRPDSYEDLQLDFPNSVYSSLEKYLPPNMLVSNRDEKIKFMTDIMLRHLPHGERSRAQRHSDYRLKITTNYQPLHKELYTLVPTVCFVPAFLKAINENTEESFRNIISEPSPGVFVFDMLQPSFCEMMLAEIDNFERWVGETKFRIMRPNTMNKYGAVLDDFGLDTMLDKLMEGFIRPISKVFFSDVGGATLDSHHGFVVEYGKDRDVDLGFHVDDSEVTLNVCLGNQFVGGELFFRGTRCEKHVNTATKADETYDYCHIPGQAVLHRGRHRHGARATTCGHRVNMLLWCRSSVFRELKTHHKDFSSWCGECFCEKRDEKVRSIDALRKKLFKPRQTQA
Chain of AT4G38130.1 HDA19 (Arabidopsis thaliana) (O22446 whole entry): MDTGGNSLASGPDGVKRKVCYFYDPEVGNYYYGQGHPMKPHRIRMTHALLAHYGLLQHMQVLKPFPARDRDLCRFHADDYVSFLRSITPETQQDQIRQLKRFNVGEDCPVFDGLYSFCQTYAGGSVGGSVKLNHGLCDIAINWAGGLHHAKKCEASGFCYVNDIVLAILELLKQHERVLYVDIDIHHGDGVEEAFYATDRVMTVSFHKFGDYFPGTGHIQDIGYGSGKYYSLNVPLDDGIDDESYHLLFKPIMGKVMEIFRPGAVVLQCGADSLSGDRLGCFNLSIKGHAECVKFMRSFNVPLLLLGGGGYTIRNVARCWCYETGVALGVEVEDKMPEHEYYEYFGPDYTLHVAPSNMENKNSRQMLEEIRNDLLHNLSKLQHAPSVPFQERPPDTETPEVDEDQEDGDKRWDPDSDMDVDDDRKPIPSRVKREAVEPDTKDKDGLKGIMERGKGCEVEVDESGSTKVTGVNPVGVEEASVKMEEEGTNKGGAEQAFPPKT
Chain of AT3G10480.3 NAC050 (Arabidopsis thaliana) (Q9SQX9 whole entry): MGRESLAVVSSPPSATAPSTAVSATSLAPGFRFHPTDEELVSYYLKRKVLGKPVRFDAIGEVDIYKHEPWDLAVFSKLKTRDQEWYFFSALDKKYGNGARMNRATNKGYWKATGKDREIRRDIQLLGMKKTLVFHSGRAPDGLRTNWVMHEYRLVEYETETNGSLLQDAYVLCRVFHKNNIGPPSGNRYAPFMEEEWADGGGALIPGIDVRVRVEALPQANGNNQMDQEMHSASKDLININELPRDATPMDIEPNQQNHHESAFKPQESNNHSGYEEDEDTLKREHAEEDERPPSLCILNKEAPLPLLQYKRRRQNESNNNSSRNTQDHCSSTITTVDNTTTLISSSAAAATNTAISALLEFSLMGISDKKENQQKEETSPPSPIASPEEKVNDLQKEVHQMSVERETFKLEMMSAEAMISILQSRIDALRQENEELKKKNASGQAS
Chain of AT5G58230.1 MSI1 (Arabidopsis thaliana) (O22467 whole entry): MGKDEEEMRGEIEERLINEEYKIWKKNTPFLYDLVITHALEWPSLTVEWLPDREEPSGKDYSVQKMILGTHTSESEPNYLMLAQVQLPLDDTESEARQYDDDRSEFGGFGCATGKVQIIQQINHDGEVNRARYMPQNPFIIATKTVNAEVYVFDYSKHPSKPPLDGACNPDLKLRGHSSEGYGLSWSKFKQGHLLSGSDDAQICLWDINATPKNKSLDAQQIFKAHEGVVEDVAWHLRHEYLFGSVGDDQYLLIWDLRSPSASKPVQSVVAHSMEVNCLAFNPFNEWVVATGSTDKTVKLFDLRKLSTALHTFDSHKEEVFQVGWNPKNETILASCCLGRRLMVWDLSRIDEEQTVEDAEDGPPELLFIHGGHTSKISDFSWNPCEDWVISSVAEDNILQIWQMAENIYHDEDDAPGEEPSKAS
Chain of AT3G20740.1 FIE (Arabidopsis thaliana) (Q9LT47 whole entry): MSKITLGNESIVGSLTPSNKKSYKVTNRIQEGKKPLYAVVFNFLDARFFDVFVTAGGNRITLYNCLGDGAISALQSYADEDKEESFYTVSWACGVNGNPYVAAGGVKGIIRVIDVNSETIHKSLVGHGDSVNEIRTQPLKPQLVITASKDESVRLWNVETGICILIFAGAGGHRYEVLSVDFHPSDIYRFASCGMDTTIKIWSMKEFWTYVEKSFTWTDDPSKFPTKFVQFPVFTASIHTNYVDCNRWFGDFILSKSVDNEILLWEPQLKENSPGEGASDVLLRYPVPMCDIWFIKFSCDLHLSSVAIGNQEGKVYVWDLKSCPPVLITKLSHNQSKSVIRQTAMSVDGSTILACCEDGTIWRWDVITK
Chain of AT1G49950.3 TRB1 (Arabidopsis thaliana) (Q8VWK4 whole entry): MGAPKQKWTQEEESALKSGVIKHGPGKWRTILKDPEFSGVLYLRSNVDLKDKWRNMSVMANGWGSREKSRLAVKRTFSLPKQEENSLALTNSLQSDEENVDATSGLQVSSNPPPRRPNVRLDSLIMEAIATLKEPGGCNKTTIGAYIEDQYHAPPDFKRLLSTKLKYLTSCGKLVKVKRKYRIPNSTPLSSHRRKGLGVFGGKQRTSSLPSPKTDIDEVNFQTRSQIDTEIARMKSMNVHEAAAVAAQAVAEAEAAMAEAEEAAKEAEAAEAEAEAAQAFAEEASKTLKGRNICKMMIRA

Substance	IP-MS count [1]	IP-MS count [2]	IP-MS count [3]	IP-MS count [5]	IP-MS count [6]	IP-MS count [7]	IP-MS count [8]	IP-MS count [9]	IP-MS count [10]	IP-MS count [11]	IP-MS count [13]	IP-MS count [14]	IP-MS count [16]	IP-MS count [17]	IP-MS count [18]	IP-MS count [19]	IP-MS count [21]	IP-MS count [24]	IP-MS count [31]	IP-MS count [36]	also measured
FLAG-TRB1 (from UniProt Q8VWK4 1-300)	11	27	5	12	40	11	55	2	79	3	12	35	103	3	75	1	11	103	–	–	IP-MS count [4]: 2; IP-MS count [12]: 0; IP-MS count [15]: 17; IP-MS count [20]: 0; IP-MS count [22]: 33; IP-MS count [23]: 13
FLAG-TRB2 (from UniProt Q9FJW5 1-299)	90	33	35	30	39	17	55	56	50	28	21	1	22	55	53	30	26	11	12	11	IP-MS count [25]: 27; IP-MS count [26]: 33; IP-MS count [27]: 15; IP-MS count [28]: 10; IP-MS count [29]: 17; IP-MS count [30]: 15; IP-MS count [15]: 5; IP-MS count [32]: 5; IP-MS count [33]: 4; IP-MS count [34]: 15; IP-MS count [35]: 10; IP-MS count [22]: 1; IP-MS count [23]: 4; IP-MS count [37]: 5; IP-MS count [38]: 0; IP-MS count [39]: 15
FLAG-TRB3 (from UniProt Q9M2X3 1-295)	104	37	34	31	39	12	59	83	73	41	35	4	28	81	79	34	37	24	24	16	IP-MS count [25]: 29; IP-MS count [26]: 36; IP-MS count [27]: 19; IP-MS count [28]: 9; IP-MS count [29]: 18; IP-MS count [30]: 23; IP-MS count [15]: 31; IP-MS count [32]: 19; IP-MS count [33]: 0; IP-MS count [34]: 19; IP-MS count [35]: 23; IP-MS count [22]: 5; IP-MS count [23]: 38; IP-MS count [37]: 15; IP-MS count [38]: 0; IP-MS count [39]: 15
TRBIP1 (bait of the TRBIP1 IP-MS)	–	–	–	–	–	–	–	7	19	3	9	–	2	36	32	22	20	10	6	15	IP-MS count [30]: 3; IP-MS count [40]: 3; IP-MS count [41]: 5; IP-MS count [42]: 0; IP-MS count [32]: 0; IP-MS count [34]: 8; IP-MS count [35]: 10; IP-MS count [43]: 4; IP-MS count [44]: 7; IP-MS count [45]: 7; IP-MS count [37]: 7; IP-MS count [39]: 14
TRBIP2 (bait of the TRBIP2 IP-MS)	–	–	–	–	–	–	–	0	4	–	0	–	0	4	16	–	3	4	0	3	IP-MS count [40]: 1; IP-MS count [41]: 3; IP-MS count [42]: 0; IP-MS count [43]: 4; IP-MS count [44]: 10; IP-MS count [45]: 3

From patent US20250042956A1
